Experimental data as given in paper PMC5542067.
Read-outs that look alike come from different tables or passages of the source.

Experiments:
CTCF ZF3-7 [1] = target: T1, CTCF ZF3-7 (human, UniProt P49711 321-465); experiment: crystal structure
T1 sequence: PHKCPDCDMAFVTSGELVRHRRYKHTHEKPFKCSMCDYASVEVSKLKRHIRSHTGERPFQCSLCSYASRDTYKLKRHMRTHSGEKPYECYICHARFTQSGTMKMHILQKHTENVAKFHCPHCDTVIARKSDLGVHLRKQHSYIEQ

CTCF ZF3-7 [2] = target: T1, CTCF ZF3-7; experiment: fluorescence polarization
CTCF ZF4-8 [3] = target: T2, CTCF ZF4-8 (human, UniProt P49711 348-492); experiment: fluorescence polarization
T2 sequence: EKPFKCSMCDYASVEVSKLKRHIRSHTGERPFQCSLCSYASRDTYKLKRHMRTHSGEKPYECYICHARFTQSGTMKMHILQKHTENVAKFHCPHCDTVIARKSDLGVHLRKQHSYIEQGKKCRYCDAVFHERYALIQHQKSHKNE

CTCF ZF4-7 [4] = target: T3, CTCF ZF4-7 (human, UniProt P49711 349-465); experiment: fluorescence polarization
T3 sequence: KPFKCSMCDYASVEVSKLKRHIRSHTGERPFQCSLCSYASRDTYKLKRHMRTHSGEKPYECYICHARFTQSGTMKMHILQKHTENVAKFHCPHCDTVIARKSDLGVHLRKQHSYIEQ

CTCF ZF3-7 [5] = target: T1, CTCF ZF3-7; experiment: fluorescence polarization; remark: listed apart in the source
CTCF ZF4-7 [6] = target: T3, CTCF ZF4-7; experiment: fluorescence polarization; remark: listed apart in the source
CTCF ZF4-8 [7] = target: T2, CTCF ZF4-8; experiment: fluorescence polarization; remark: listed apart in the source
CTCF ZF4-7 [8] = target: T3, CTCF ZF4-7; experiment: fluorescence polarization; remark: listed apart in the source
CTCF ZF4-7 [9] = target: T3, CTCF ZF4-7; experiment: fluorescence polarization; remark: listed apart in the source
CTCF ZF4-7 [10] = target: T3, CTCF ZF4-7; experiment: fluorescence polarization; remark: listed apart in the source

B1: CORE crystal 17-mer (dsDNA)
DNA 1: GCCAGCAGGGGGCGCTA
DNA 2: TAGCGCCCCCTGCTGGC
- binding result (CTCF ZF3-7 [1]): binds

B2: CORE (dsDNA)
DNA 1: AGGACCAGCAGGGGGCGCA
DNA 2: TGCGCCCCCTGCTGGTCCT
- binding signal (CTCF ZF3-7 [2]): ~4 fold higher affinity than without ZF3
- binding signal (CTCF ZF4-8 [3]): ~1 fold affinity vs ZF4-7 on CORE (similar)
- binding signal (CTCF ZF4-7 [4]): 1 fold (reference)
- binding signal (CTCF ZF3-7 [5]): ~6 fold higher affinity than without ZF3

B3: CORE 5mC12 (dsDNA)
DNA 1: AGGACCAGCAGGGGGCGCA
DNA 2: TGCGCCCCCTGCTGGTCCT
modifications: 5mC at nt 16 of top strand (motif position 12)
- binding signal (CTCF ZF4-7 [6]): 1.5 fold higher affinity than CORE

B4: control (dsDNA)
DNA 1: AATGGACGAGTCATAGGAGA
DNA 2: TTCTCCTATGACTCGTCCAT
- binding signal (CTCF ZF4-8 [7]): ~10 fold higher affinity than without ZF8 on control

B5: H19 (dsDNA)
DNA 1: GTTGCCGCGTGGTGGCAG
DNA 2: CTGCCACCACGCGGCAAC
- binding signal (CTCF ZF4-7 [8]): ~6 fold lower affinity than CORE

B6: CORE A3G (dsDNA)
DNA 1: AGGACCGGCAGGGGGCGCA
DNA 2: TGCGCCCCCTGCCGGTCCT
- binding signal (CTCF ZF4-7 [9]): ~1 fold affinity vs CORE (indistinguishable)

B7: CORE 5mC2 (dsDNA)
DNA 1: AGGACCAGCAGGGGGCGCA
DNA 2: TGCGCCCCCTGCTGGTCCT
modifications: 5mC at nt 6 of top strand (motif position 2)
- binding signal (CTCF ZF4-7 [10]): ~23 fold lower affinity than CORE
